In article doi:10.1101/2025.11.07.687251, “Reconstitution of multistep recruitment of ULK1 to membranes in autophagy” (bioRxiv, 2025):

T1: MBP-mCherry-ULK1(291–828) (human, UniProt O75385 291-828)
T1 construct: ULK1, human, intrinsically disordered region, residues 291-828 (no kinase domain, no EAT domain); also called mCherry-ULK1 ^ΔKDΔEAT (291–828); ULK1 IDR; source: purified (amylose resin); not shown: mCherry, N-terminal, kept
T1 sequence (looked up): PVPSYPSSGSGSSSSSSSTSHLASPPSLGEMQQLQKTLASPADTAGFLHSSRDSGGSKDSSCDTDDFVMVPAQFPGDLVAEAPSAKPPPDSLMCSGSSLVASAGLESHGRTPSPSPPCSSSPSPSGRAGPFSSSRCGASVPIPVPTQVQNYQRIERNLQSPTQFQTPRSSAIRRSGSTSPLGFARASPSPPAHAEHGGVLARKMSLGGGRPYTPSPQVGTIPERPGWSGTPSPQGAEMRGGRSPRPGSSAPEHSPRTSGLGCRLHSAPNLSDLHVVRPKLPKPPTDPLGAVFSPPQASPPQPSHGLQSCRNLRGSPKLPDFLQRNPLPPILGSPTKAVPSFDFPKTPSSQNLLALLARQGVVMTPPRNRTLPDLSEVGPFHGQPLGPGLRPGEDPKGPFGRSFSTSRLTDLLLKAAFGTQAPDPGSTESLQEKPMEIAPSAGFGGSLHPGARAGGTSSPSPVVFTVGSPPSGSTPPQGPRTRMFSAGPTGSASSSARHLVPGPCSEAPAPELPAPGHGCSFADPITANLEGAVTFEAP

T2: mcherry-ATG13(1–230)/TSF-ATG101 (human, UniProt O75143 1-230; Q9BSB4 1-218)
T2 construct: ATG13, human; ATG101, human, wild type; TSF-tagged proteins in general were purified on Strep-Tactin Sepharose; also called mCherry-ATG13^HD:TSF-ATG101; mCherry-ATG13^HD:ATG101; not shown: mCherry, N-terminal, kept
T2 sequence (looked up) 1: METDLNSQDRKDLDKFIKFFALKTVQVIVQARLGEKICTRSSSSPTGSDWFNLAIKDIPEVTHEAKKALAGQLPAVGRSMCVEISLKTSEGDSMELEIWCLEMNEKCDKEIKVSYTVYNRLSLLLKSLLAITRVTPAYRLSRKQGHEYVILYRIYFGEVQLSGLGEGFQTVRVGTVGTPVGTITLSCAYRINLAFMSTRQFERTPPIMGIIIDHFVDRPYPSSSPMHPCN
T2 sequence (looked up) 2: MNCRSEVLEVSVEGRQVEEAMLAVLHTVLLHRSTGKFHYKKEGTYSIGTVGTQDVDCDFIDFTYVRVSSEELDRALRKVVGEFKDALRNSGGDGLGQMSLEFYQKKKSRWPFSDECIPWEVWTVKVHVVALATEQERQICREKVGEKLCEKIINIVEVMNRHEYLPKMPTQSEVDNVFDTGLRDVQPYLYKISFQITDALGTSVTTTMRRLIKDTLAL


Experiments:
[1] = target: T1, MBP-mCherry-ULK1(291–828); assay: pull-down; microscopy-based bead assay (Fig. S3): GST-ATG13(6–196)/ATG101 as bait on GSH beads; MBP-mCherry-ULK1 fragments added separately; mCherry on the beads imaged; conditions: both partners purified
[2] = target: T2, mcherry-ATG13(1–230)/TSF-ATG101; assay: pull-down; microscopy-based bead assay (Fig. 5e): GST-GFP-ULK1(415–464) (WT or ADA) as bait on GSH beads; mcherry-ATG13(1–230)/TSF-ATG101 as prey; mCherry channel quantified; conditions: both partners purified

binding result [1]	binding result [2]	Binder
binds	–	GST-ATG13(6–196)/ATG101 (complex, human, ATG101, human, wild type; no tag is named; also called GST-ATG13^HD:ATG101; ATG13^HD:ATG101; source: HEK293T-GNTI- cells, transfected (PEI), purified (GSH resin, S200 SEC); not shown: GST, N-terminal, kept) chain 1: NSQDRKDLDKFIKFFALKTVQVIVQARLGEKICTRSSSSPTGSDWFNLAIKDIPEVTHEAKKALAGQLPAVGRSMCVEISLKTSEGDSMELEIWCLEMNEKCDKEIKVSYTVYNRLSLLLKSLLAITRVTPAYRLSRKQGHEYVILYRIYFGEVQLSGLGEGFQTVRVGTVGTPVGTITLSCAYRINLAFM chain 2: MNCRSEVLEVSVEGRQVEEAMLAVLHTVLLHRSTGKFHYKKEGTYSIGTVGTQDVDCDFIDFTYVRVSSEELDRALRKVVGEFKDALRNSGGDGLGQMSLEFYQKKKSRWPFSDECIPWEVWTVKVHVVALATEQERQICREKVGEKLCEKIINIVEVMNRHEYLPKMPTQSEVDNVFDTGLRDVQPYLYKISFQITDALGTSVTTTMRRLIKDTLAL
–	binds	SGRAGPFSSSRCGASVPIPVPTQVQNYQRIERNLQSPTQFQTPRSSAIRR (domain or fragment, human, UniProt O75385 415-464, looked up, ULK1, human, IDR fragment with the PVP motif, residues 415-464; GST-tagged proteins in general were purified on GSH resin; also called GST-tagged fragment of the ULK1 IDR encompassing residues 415–464; not shown: GST, N-terminal, kept; GFP, N-terminal, kept) [GST-GFP-ULK1(415–464)]
